{"source": "the supplement of paper PMC9732359", "assay": "protein stability index of a GFP-peptide fusion (yeast GPS) (PSI 1-4); higher = more stable; sorted into four equal gates, so the index is relative within each strain", "how_it_was_run": "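The protein stability index of a peptide was calculated by multiplying its read frequency in each gate by that gate's number and adding the products. The peptides were tiled 17-residue stretches of yeast proteins, fused downstream of GFP on a Cherry-expressing plasmid and carried in yeast as a pooled library. Mid-log cultures in leucine-free medium were sorted into four equal gates by GFP/Cherry ratio, and each gate's plasmids were PCR-amplified and Illumina-sequenced.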", "note": "± gives the uncertainty stated by the source.", "data": [{"sequence": "EVTAGEAQDEASLQQQQ [SNF6]", "values": [{"measurement": "protein stability index", "setting": "doa10∆", "value": "3.31 ± 0.17"}, {"measurement": "protein stability index", "setting": "san1∆", "value": "3.29 ± 0.14"}, {"measurement": "protein stability index", "setting": "ubr1∆", "value": "3.6 ± 0.27"}]}, {"sequence": "DDEKNDKQARKQRTKKE [SNF2]", "values": [{"measurement": "protein stability index", "setting": "doa10∆", "value": "3.35 ± 0.3"}, {"measurement": "protein stability index", "setting": "pdr5∆", "value": "3.53 ± 0.11"}, {"measurement": "protein stability index", "setting": "san1∆", "value": "3.06 ± 0.088"}, {"measurement": "protein stability index", "setting": "ubr1∆", "value": "3.18 ± 0.1"}]}, {"sequence": "IVNVLSKCLNLISDSNI [SWI3]", "values": [{"measurement": "protein stability index", "setting": "doa10∆", "value": "2.05 ± 0.043"}, {"measurement": "protein stability index", "setting": "pdr5∆", "value": "1.77 ± 0.038"}, {"measurement": "protein stability index", "setting": "san1∆", "value": "1.65 ± 0.073"}, {"measurement": "protein stability index", "setting": "ubr1∆", "value": "2 ± 0.029"}]}, {"sequence": "SETFLQFYVKRWKRFTI [CDC53]", "values": [{"measurement": "protein stability index", "setting": "doa10∆", "value": "2.39 ± 0.1"}, {"measurement": "protein stability index", "setting": "pdr5∆", "value": "2.74 ± 0.063"}, {"measurement": "protein stability index", "setting": "san1∆", "value": "1.73 ± 0.1"}, {"measurement": "protein stability index", "setting": "ubr1∆", "value": "2.3 ± 0.074"}]}, {"sequence": "DEDEDNDLDEDDIYDIS [RPN4]", "values": [{"measurement": "protein stability index", "setting": "pdr5∆", "value": "3.46 ± 0.2"}, {"measurement": "protein stability index", "setting": "san1∆", "value": "3.56 ± 0.11"}, {"measurement": "protein stability index", "setting": "ubr1∆", "value": "3.33 ± 0.15"}]}, {"sequence": "KDHLLLEEEFVSNSEIL [RPT2]", "values": [{"measurement": "protein stability index", "setting": "doa10∆", "value": "2.87 ± 0.09"}, {"measurement": "protein stability index", "setting": "pdr5∆", "value": "2.83 ± 0.065"}, {"measurement": "protein stability index", "setting": "san1∆", "value": "2.83 ± 0.066"}, {"measurement": "protein stability index", "setting": "ubr1∆", "value": "2.74 ± 0.078"}]}, {"sequence": "KAHPNFPIALQWTGGRG [FAS1]", "values": [{"measurement": "protein stability index", "setting": "doa10∆", "value": "2.62 ± 0.13"}, {"measurement": "protein stability index", "setting": "pdr5∆", "value": "2.64 ± 0.12"}, {"measurement": "protein stability index", "setting": "san1∆", "value": "2.2 ± 0.096"}, {"measurement": "protein stability index", "setting": "ubr1∆", "value": "2.01 ± 0.092"}]}, {"sequence": "QTWSYLSLYSTDLENSS [ECM29]", "values": [{"measurement": "protein stability index", "setting": "doa10∆", "value": "2.41 ± 0.064"}, {"measurement": "protein stability index", "setting": "pdr5∆", "value": "2.25 ± 0.052"}, {"measurement": "protein stability index", "setting": "san1∆", "value": "2.66 ± 0.05"}, {"measurement": "protein stability index", "setting": "ubr1∆", "value": "2.76 ± 0.049"}]}, {"sequence": "LDERGHEKIEDEDEDND [RPN4]", "values": [{"measurement": "protein stability index", "setting": "doa10∆", "value": "3.37 ± 0.25"}, {"measurement": "protein stability index", "setting": "pdr5∆", "value": "3.44 ± 0.15"}, {"measurement": "protein stability index", "setting": "san1∆", "value": "3.48 ± 0.13"}, {"measurement": "protein stability index", "setting": "ubr1∆", "value": "3.32 ± 0.17"}]}, {"sequence": "TTALLKDEEIEKLLQQD [MED8]", "values": [{"measurement": "protein stability index", "setting": "doa10∆", "value": "3.29 ± 0.13"}, {"measurement": "protein stability index", "setting": "pdr5∆", "value": "3.13 ± 0.13"}, {"measurement": "protein stability index", "setting": "san1∆", "value": "3.05 ± 0.23"}, {"measurement": "protein stability index", "setting": "ubr1∆", "value": "3.59 ± 0.14"}]}, {"sequence": "MSSTNGNAPATPSSDQN [SOH1]", "values": [{"measurement": "protein stability index", "setting": "doa10∆", "value": "3.17 ± 0.09"}, {"measurement": "protein stability index", "setting": "pdr5∆", "value": "2.75 ± 0.1"}, {"measurement": "protein stability index", "setting": "san1∆", "value": "3.2 ± 0.058"}, {"measurement": "protein stability index", "setting": "ubr1∆", "value": "3.11 ± 0.1"}]}, {"sequence": "LNSMEKDRISHEVVQDD [PCI8]", "values": [{"measurement": "protein stability index", "setting": "doa10∆", "value": "2.61 ± 0.079"}, {"measurement": "protein stability index", "setting": "pdr5∆", "value": "2.69 ± 0.061"}, {"measurement": "protein stability index", "setting": "san1∆", "value": "3.01 ± 0.067"}, {"measurement": "protein stability index", "setting": "ubr1∆", "value": "2.41 ± 0.12"}]}, {"sequence": "EGAARGTSVYLVDKRID [DIS3]", "values": [{"measurement": "protein stability index", "setting": "doa10∆", "value": "3.38 ± 0.17"}, {"measurement": "protein stability index", "setting": "pdr5∆", "value": "3.33 ± 0.14"}, {"measurement": "protein stability index", "setting": "san1∆", "value": "3.13 ± 0.086"}, {"measurement": "protein stability index", "setting": "ubr1∆", "value": "3.08 ± 0.12"}]}, {"sequence": "NTTVISDKQRRLLAKDA [DIS3]", "values": [{"measurement": "protein stability index", "setting": "doa10∆", "value": "2.37 ± 0.051"}, {"measurement": "protein stability index", "setting": "pdr5∆", "value": "2.23 ± 0.045"}, {"measurement": "protein stability index", "setting": "san1∆", "value": "2.06 ± 0.066"}, {"measurement": "protein stability index", "setting": "ubr1∆", "value": "2.18 ± 0.045"}]}, {"sequence": "AYELRTKSKEQLASQLV [RPL35A]", "values": [{"measurement": "protein stability index", "setting": "doa10∆", "value": "3.02 ± 0.11"}, {"measurement": "protein stability index", "setting": "pdr5∆", "value": "3.29 ± 0.091"}, {"measurement": "protein stability index", "setting": "san1∆", "value": "2.93 ± 0.067"}, {"measurement": "protein stability index", "setting": "ubr1∆", "value": "3.15 ± 0.13"}]}, {"sequence": "HINSILLARVIQMNNSL [SNF11]", "values": [{"measurement": "protein stability index", "setting": "doa10∆", "value": "2.22 ± 0.13"}, {"measurement": "protein stability index", "setting": "pdr5∆", "value": "1.94 ± 0.11"}, {"measurement": "protein stability index", "setting": "san1∆", "value": "1.96 ± 0.12"}, {"measurement": "protein stability index", "setting": "ubr1∆", "value": "1.7 ± 0.092"}]}, {"sequence": "LKLSQAFGSSATDISGE [YJR042W/NUP85]", "values": [{"measurement": "protein stability index", "setting": "doa10∆", "value": "2.76 ± 0.065"}, {"measurement": "protein stability index", "setting": "pdr5∆", "value": "2.05 ± 0.067"}, {"measurement": "protein stability index", "setting": "san1∆", "value": "2.56 ± 0.059"}, {"measurement": "protein stability index", "setting": "ubr1∆", "value": "2.14 ± 0.048"}]}, {"sequence": "VLTHESLHRQQQQQQQQ [DLS1]", "values": [{"measurement": "protein stability index", "setting": "doa10∆", "value": "3 ± 0.082"}, {"measurement": "protein stability index", "setting": "pdr5∆", "value": "2.9 ± 0.079"}, {"measurement": "protein stability index", "setting": "san1∆", "value": "2.62 ± 0.052"}, {"measurement": "protein stability index", "setting": "ubr1∆", "value": "2.85 ± 0.079"}]}, {"sequence": "GAKVKTMRRQKLTILQE [RET1]", "values": [{"measurement": "protein stability index", "setting": "doa10∆", "value": "1.43 ± 0.088"}, {"measurement": "protein stability index", "setting": "pdr5∆", "value": "2.35 ± 0.06"}, {"measurement": "protein stability index", "setting": "san1∆", "value": "2.05 ± 0.14"}, {"measurement": "protein stability index", "setting": "ubr1∆", "value": "2.22 ± 0.086"}]}, {"sequence": "LKNLRKKLNFKLCQAFM [YJR042W/NUP85]", "values": [{"measurement": "protein stability index", "setting": "doa10∆", "value": "2.19 ± 0.089"}, {"measurement": "protein stability index", "setting": "pdr5∆", "value": "2.18 ± 0.093"}, {"measurement": "protein stability index", "setting": "san1∆", "value": "1.61 ± 0.15"}, {"measurement": "protein stability index", "setting": "ubr1∆", "value": "2.98 ± 0.15"}]}, {"sequence": "DENKASATSKPAFSFGA [YJL041W/NSP1]", "values": [{"measurement": "protein stability index", "setting": "doa10∆", "value": "2.96 ± 0.063"}, {"measurement": "protein stability index", "setting": "pdr5∆", "value": "2.98 ± 0.055"}, {"measurement": "protein stability index", "setting": "san1∆", "value": "3 ± 0.05"}, {"measurement": "protein stability index", "setting": "ubr1∆", "value": "2.97 ± 0.055"}]}, {"sequence": "QIAAQSPVELSRMFEEV [SMC1]", "values": [{"measurement": "protein stability index", "setting": "doa10∆", "value": "3.19 ± 0.14"}, {"measurement": "protein stability index", "setting": "pdr5∆", "value": "3.2 ± 0.079"}, {"measurement": "protein stability index", "setting": "san1∆", "value": "3.14 ± 0.058"}, {"measurement": "protein stability index", "setting": "ubr1∆", "value": "3.27 ± 0.075"}]}, {"sequence": "CRVCSSHTGLIRKYGLN [RPS29A]", "values": [{"measurement": "protein stability index", "setting": "doa10∆", "value": "1.5 ± 0.13"}, {"measurement": "protein stability index", "setting": "pdr5∆", "value": "1.53 ± 0.1"}, {"measurement": "protein stability index", "setting": "san1∆", "value": "1.48 ± 0.15"}, {"measurement": "protein stability index", "setting": "ubr1∆", "value": "1.59 ± 0.069"}]}, {"sequence": "QISLNRLIDSMKQYSYL [RRI1]", "values": [{"measurement": "protein stability index", "setting": "doa10∆", "value": "2.43 ± 0.23"}, {"measurement": "protein stability index", "setting": "pdr5∆", "value": "2.29 ± 0.16"}, {"measurement": "protein stability index", "setting": "san1∆", "value": "2.48 ± 0.17"}, {"measurement": "protein stability index", "setting": "ubr1∆", "value": "3.11 ± 0.12"}]}, {"sequence": "EHWKVRNFKKANLVNKE [BRN1]", "values": [{"measurement": "protein stability index", "setting": "doa10∆", "value": "2.06 ± 0.1"}, {"measurement": "protein stability index", "setting": "pdr5∆", "value": "1.5 ± 0.051"}, {"measurement": "protein stability index", "setting": "san1∆", "value": "1.54 ± 0.13"}, {"measurement": "protein stability index", "setting": "ubr1∆", "value": "1.83 ± 0.05"}]}, {"sequence": "VIYRNSLYKVSFLEKPK [YMR129W/POM152]", "values": [{"measurement": "protein stability index", "setting": "doa10∆", "value": "2.49 ± 0.065"}, {"measurement": "protein stability index", "setting": "pdr5∆", "value": "2.61 ± 0.081"}, {"measurement": "protein stability index", "setting": "san1∆", "value": "2.42 ± 0.073"}, {"measurement": "protein stability index", "setting": "ubr1∆", "value": "2.43 ± 0.12"}]}]}
